The record followed here is patent US20240109962A1 (SPARX BIOSCIENCE, published 2024).

Test [1] concerns the target LILRB2 antigen of the ELISA of Table 5 (format not specified) (UniProt Q8N423 22-460, limits assumed). In words: ELISA, antibody titration. For orientation: An ELISA detects its analyte on a solid surface through an enzyme-linked reagent.
In test [2] the target is T1, human LILRB3 expressed on 293T cells (human, UniProt O75022 24-631).
T1 construct: whole, on cells
As to the kind of experiment: cell ELISA, 293T-LILRB3 cells, antibody 2 ug/ml. As for the experimental part:
(§1) The cells were then immobilized with glutaraldehyde in the presence of 5% defatted milk at room temperature for 2 hours. An anti-LILRB2 antibody (2 μg/ml) was added to each well and incubated at room temperature for 2 hours. An HRP-labelled goat anti-mouse secondary antibody was then added into each well and incubated at room temperature for one hour. An HRP substrate, o-phenylenediamine dihydrochloride (OPD) was then added to each well. The plate was incubated at room temperature for 15 min to allow color development and OD₄₉₀ values were determined.

The target in test [3] is T2, human LILRB2 expressed on cells (293T-LILRB2, CHO-K1-LILRB2) (human, UniProt Q8N423 22-597).
T2 construct: whole, on cells; the cell line is named under assay; also called HEK293T-LILRB2
In words: cell ELISA, 293T-LILRB2 cells, antibody 2 ug/ml. The method, then: as §1

Test [4] deals with T3, LILRB1-His.
T3 construct: also called His-tagged LILRB1; recombinant LILRB1 protein
In words: ELISA on recombinant His-tagged protein, OD450.

Test [5] addresses T4, LILRB3-His.
T4 construct: also called His-tagged LILRB3; recombinant LILRB3 protein
As to the kind of experiment: ELISA on recombinant His-tagged protein, OD450.

Test [6] deals with T2, human LILRB2 expressed on cells …. In words: flow cytometry, blockade of PE-HLA-G tetramer binding to 293T-huLILRB2 cells. The method, then: Pre-experimentation was performed to determine parameters for this assay. […] The cells were washed twice and then analysed by flow cytometry. […] FIG. 3C.
A mouse IgG (mIgG) antibody was used as a negative control.
(In flow cytometry, cells or beads pass a laser one at a time.)

Test [7] addresses T5, human LILRB1 expressed on 293T cells (human, UniProt Q8NHL6 24-650).
T5 construct: whole, on cells
In words: cell ELISA, 293T-LILRB1 cells, antibody 2 ug/ml. As for the experimental part:
as §1

Test [8] deals with T2, human LILRB2 expressed on cells …. As to the kind of experiment: flow cytometry, blockade of PE-HLA-A2 tetramer binding to CHO-K1-huLILRB2 cells. The method, then:
Pre-experimentation was performed to determine parameters for this assay. PE-labelled HLA-A2 tetramer at the concentration of 0.25 μg/ml and an anti-LILRB2 antibody at the concentration of 2.5 μg/ml were incubated with CHO-K1-huLILRB2 cells for 10 minutes. The cells were washed twice and then analysed by flow cytometry. […] FIG. 3A.
Clones 11B12, 9B6, and 9H6 were selected for dose-dependent blockade assays against HLA-A2 from binding to CHO-K1-huLILRB2 cells. A mouse IgG (mIgG) antibody was used as a negative control.

The target of test [9] is T1, human LILRB3 expressed on 293T cells. In words: flow cytometry on 293T transfectants, MFI. Put shortly: (§2)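 Cells fixed with glutaraldehyde in 5% defatted milk, RT 2 h, then stained with anti-LILRB2 antibody (5 μg/ml, RT 1 h) and Alexa Fluor goat anti-mouse secondary (1:2,000, RT 30′). After two PBS washes, mean fluorescence intensity was measured.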
Test [10] concerns the target T5, human LILRB1 expressed on 293T cells. In words: flow cytometry on 293T transfectants, MFI. In a few lines: as §2
Test [11] has as its target T6, LILRB2-Fc fusion protein (human, UniProt Q8N423 22-460, limits assumed).
T6 construct: not shown: Fc
In words: ELISA, blockade of LILRB2-Fc binding to coated His-ANGPTL2. As for the experimental part: His-tagged ANGPTL2 protein (1 μg/ml) was placed in a 96-well plate ([…]) and incubated at 4° C. overnight. Afterwards, LILRB2-Fc fusion protein at 0.25 mg/ml was incubated with the anti-LILRB2 antibody at various concentrations at room temperature for one hour and then added into the His-ANGPTL2 coated plate. The plate was placed in a shaker at 500 rpm for 2 hours at room temperature. HRP-labelled goat anti-human Fc antibody (1:10,000 dilution) was added to the plate (100 μl/well). After incubation at room temperature for 1 hour, TMB was added for color development.
Clones 11B12, 9B6, 9H6, and 14F1 were selected for dose-dependent blockade assays. A mouse IgG (mIgG) antibody was used as a negative control. […] The IC₅₀ values are around 1 nM. […] (ix) Exemplary Anti-LILBR2 Antibodies Enhanced TNFα Expression and Suppressed IL-10 Expression in LPS-Stimulated PBMCs

The target of test [12] is T7, His-tagged human LILRB2 polypeptide (human, UniProt Q8N423 22-460).
T7 construct: SPR analyte; also called His-tagged human LILBR2 polypeptide; not shown: His tag
In words: SPR, antibody on CM5 chip, His-LILRB2 analyte, 1:1 model. The method, then: Surface plasmon resonance (SPR) was used to examine binding activities of exemplary anti-LILBR2 antibodies disclosed herein. Briefly, the anti-LILBR2 antibody was diluted in a coating buffer to a concentration of 30 μg/ml, loaded onto CM5 chips at 10 μl/min to allow coating of the antibody on the surface of the CM5 chip. […] Binding affinity was measured based on the 1:1 binding model.
(In SPR one partner is held on a chip, and binding of the other changes the refractive index at the surface.)

Test [13] addresses T1, human LILRB3 expressed on 293T cells. In words: cell ELISA on fixed 293T transfectants, OD490. As for the experimental part: as §1
Test [14] addresses T5, human LILRB1 expressed on 293T cells. In words: cell ELISA on fixed 293T transfectants, OD490. The method, then:
as §1

Test [15] shares this target. As to the kind of experiment: cell ELISA on fixed 293T transfectants, antibody 2 µg/ml, OD490. The method, then:
as §1

The target of test [16] is T2, human LILRB2 expressed on cells …. As to the kind of experiment: flow cytometry, blockade of His-tagged HLA-G tetramer binding to 293T-LILRB2 cells; fit table under the graph. As for the experimental part: Serial diluted humanized LILRB2 antibodies were then added to the mixture and incubated at room temperature for another 45 minutes. The binding of HLA-G/LILRB2 was detected afterwards using a secondary PE-labeled anti-His tag antibody via flow cytometry.

Test [17] has the same target. In words: flow cytometry on 293T-LILRB2 cells, serial dilution, APC anti-human IgG; fit table under the graph. The text has this: The cells were washed and then subject to flow cytometry to measure levels of fluorescent signals.

T5 sequence (Q8NHL6 24-650): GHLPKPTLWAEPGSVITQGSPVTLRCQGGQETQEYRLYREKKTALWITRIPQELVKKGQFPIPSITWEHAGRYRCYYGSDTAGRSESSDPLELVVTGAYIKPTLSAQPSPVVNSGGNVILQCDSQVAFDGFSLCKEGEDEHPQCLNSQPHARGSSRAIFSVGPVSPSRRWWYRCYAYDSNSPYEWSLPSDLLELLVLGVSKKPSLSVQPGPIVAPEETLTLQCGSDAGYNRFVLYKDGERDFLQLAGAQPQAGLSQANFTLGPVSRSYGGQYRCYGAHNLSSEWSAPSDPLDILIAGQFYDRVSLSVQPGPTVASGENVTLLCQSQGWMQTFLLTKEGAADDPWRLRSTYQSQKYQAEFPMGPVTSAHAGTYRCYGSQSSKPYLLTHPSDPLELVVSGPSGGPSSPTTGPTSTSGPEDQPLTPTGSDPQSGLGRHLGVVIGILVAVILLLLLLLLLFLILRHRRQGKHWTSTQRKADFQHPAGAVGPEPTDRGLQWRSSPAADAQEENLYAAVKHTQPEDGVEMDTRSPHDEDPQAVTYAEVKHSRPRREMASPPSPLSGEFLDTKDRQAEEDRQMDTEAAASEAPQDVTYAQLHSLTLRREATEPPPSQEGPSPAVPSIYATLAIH
T3 sequence (chain, as listed by the source limits assumed): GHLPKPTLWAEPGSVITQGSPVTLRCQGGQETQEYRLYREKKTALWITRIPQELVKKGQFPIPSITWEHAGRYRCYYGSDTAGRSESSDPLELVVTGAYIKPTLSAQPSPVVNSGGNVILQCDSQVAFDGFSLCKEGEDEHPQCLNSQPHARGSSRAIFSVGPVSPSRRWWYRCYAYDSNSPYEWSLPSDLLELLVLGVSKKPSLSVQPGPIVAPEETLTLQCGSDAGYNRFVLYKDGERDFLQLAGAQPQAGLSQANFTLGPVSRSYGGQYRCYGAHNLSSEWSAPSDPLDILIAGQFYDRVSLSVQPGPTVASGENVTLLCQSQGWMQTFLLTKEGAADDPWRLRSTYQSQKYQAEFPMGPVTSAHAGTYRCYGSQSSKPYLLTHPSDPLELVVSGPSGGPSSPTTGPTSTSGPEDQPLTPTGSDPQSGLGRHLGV
T7 sequence (Q8N423 22-460 limits assumed): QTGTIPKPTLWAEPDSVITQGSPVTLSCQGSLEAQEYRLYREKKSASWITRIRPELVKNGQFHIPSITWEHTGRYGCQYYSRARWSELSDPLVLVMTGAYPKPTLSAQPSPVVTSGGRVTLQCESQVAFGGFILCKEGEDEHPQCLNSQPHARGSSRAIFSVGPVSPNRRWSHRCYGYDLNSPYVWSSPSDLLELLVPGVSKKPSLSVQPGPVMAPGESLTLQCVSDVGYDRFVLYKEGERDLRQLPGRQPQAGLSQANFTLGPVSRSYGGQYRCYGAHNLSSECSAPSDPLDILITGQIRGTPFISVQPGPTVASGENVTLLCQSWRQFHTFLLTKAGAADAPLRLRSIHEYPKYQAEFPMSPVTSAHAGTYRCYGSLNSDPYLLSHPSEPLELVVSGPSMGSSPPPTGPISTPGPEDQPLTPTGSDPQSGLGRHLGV
Sequence of LILRB2 antigen of the ELISA of Table 5 (format not specified) (Q8N423 22-460 limits assumed): as above
T6 sequence (Q8N423 22-460 limits assumed): as above
T2 sequence (Q8N423 22-597): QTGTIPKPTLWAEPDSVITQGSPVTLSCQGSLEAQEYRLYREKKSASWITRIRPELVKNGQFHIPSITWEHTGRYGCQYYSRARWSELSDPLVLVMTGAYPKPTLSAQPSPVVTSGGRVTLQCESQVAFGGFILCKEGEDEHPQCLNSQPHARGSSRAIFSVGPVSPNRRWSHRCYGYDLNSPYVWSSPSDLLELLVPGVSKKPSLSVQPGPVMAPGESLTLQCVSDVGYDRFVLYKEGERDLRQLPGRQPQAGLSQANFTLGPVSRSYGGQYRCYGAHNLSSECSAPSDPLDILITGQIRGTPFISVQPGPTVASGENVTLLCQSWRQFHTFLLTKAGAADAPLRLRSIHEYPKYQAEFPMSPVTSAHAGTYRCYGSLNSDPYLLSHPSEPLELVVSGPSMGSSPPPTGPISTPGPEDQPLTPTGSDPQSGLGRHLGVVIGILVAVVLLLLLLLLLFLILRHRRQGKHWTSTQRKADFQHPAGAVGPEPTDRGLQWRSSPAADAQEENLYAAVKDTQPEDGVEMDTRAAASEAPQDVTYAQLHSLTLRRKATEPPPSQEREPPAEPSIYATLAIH

B1: Antibody 9B6 (antibody, V domains shown)
VH: DVQLVESGGGLVQPGWSRILSCAASGFTFSNFGMHWVRQAPEKGLEWVAYISSGSGTIYYSDTVRGRFTISRDNPKNTLFLLMTSLRSEDTAMYYCTRSDYDGDWFFDVWGAGTTVTVSS
VL: DIVMTQSHRFLSTSVGDRVTITCKASQDVTTAVAWCQQKPGQSPKLLIYSASFRYTGVPDRFTGSGSGTDFTFTINNVQAEDLALYYCQQHFTTPLTFGAGTKLELK
notes: Mouse hybridoma mAb purified from ascites
For B1, the Kd – broadly, a measure of binding affinity in units of concentration – in test [1] was found to be 0.943 nM; in test [12], 1.07 nM. Moreover, the OD490 in test [2] was determined as 0.126 OD490; in [3] it was 1.43 OD490; in [7] it was 0.121 OD490. Besides, the binding result in [4] is “no binding”; in test [5], “no binding”; in [9] it was “no binding (tested: 5 µg/ml)”; in test [10], “no binding (tested: 5 µg/ml)”. Also, the IC50 (in general, the midpoint of a concentration-inhibition curve) came out at 0.618 nM in [6], 0.34 nM in test [8] and 1.01 nM in [11]. Besides, the koff – broadly, the rate constant with which the complex falls apart – in test [12] was 0.000864 s⁻¹. For the same molecule, the kon (in general, the second-order rate constant of association) in test [12] amounted to 809000 M⁻¹ s⁻¹.

B2: Antibody 11B12 (antibody, V domains shown)
VH: DVQLQESGPGLVKPSQSLSLTCSVTGYSITSGYYWNWIRQFPGNKLEWMGYISYDGNNNYNPSLKNRISITRDTSKNQFFLKLNSVTTEDTATYYCAREESTMITTAWFAYWGQGTLVTVSA
VL: DIQMTQSPASLSVSVGETVTITCRASENIYSNLAWYQQKQGKSPQLLVYGATNLADGVPSRFSGSGSGTQYSLKINSLQSEDFGSYFCQHFWDTPYTFGGGTKLEIK
notes: as for B1
On to B2, for which the dissociation constant Kd in test [1] came out at 3.2 nM; in test [12], 0.353 nM. Further, the binding result is “no binding (tested: 2 µg/ml)” in test [13], “no binding (tested: 2 µg/ml)” in test [14] and “no binding” in [5]. In addition, the IC50 in [6] is 0.857 nM; in test [8] it was 0.475 nM; in test [11], 1 nM. The molecule also showed a koff in test [12] of 0.00032 s⁻¹. The same molecule showed a kon in test [12] of 905000 M⁻¹ s⁻¹.

B3: Antibody 13D12 (antibody, V domains shown)
VH: EIQLQQSGPELVKPGASVKVSCKASGYAFTSHNIYWVKQSHGKSLEWIGYIDPYNGGSTYNQKFKDKATLTVDKSSSTAYMHLKSLTSEDSAVYYCARGDYRDFWGQGTTLTVSS
VL: DIQMTQTTSSLSASLGDRVTIRCSASQAINNYLNWYQQKPDGTVKLLIYYTSSLHSGVPSRFSGSGSGADYSLTISNLEPEDIATYYCQQYSHLPWTFGGGTTLEIK
notes: as for B1
On to B3, for which, in [1], the Kd came to 2.48 nM. Also, the binding result in test [13] is “no binding (tested: 2 µg/ml)”; in test [15], “binds”.

B4: Antibody 9H6 (antibody, V domains shown)
VH: EVQLQQSGAELVRPGALVKLSCKASGFNVKDYYMHWVKQRPEQGLEWIGWIDPKNGNGIYDPKFQGKASITADTSSNTAYLQLSSLTSEDTSVYYCARGDYFGSSYLFAYWGQGTLVTVSA
VL: DIVMTQSHKFMSTSVGDRVSITCKASQDVSTAVAWYQQKPGQSPKLLIYSASYRYTGVPDRFTGSGSGTDFTFTISSVQAEDLAVYYCQQHYSTPWTFGGGAKLEIK
notes: as for B1
With B4, the Kd was determined as 1.04 nM in test [1] and 0.0257 nM in test [12]. Further, the OD490 in [2] is 0.139 OD490; in [3], 1.86 OD490; in [7], 0.177 OD490. In addition, the binding result in test [4] is “no binding”; in test [5], “no binding”; in [9], “no binding (tested: 5 µg/ml)”; in [10], “no binding (tested: 5 µg/ml)”. The IC50 in test [6] came to 3.12 nM; in test [8] it was 4.97 nM; in test [11] it was 0.945 nM. The koff in [12] came to 4.72e-06 s⁻¹. In addition, in test [12], the kon is 183000 M⁻¹ s⁻¹.

B5: Antibody 14F1 (antibody, V domains shown)
VH: QVQLKESGPGLVAPSQSLSITCTVSGFSLTTYGVHWVRQPPGKGLEWLGVIWTGGSTNYNSALMSRLSIIKDNSKSQVFLKMNSLQTDDTAIYYCARGGYGHTMDYWGQGTSVTVSS
VL: DIVMTQSHKFMSTSVGDRVSITCKASQDVSIAVAWYQQKPGQFPKLLIYSASYRYTGVPDRFTGGGSGTDFTFTISSVQAEDLAVYYCQQHYSTPFTFGSGTKLEIK
notes: as for B1
B5: the Kd in test [1] was found to be 1.24 nM. In addition, the OD490 in test [2] stood at 0.172 OD490; in [3], 1.21 OD490; in test [7], 0.172 OD490. In addition, the binding result in [4] is reported as “no binding”; in test [5], “no binding”; in test [9], “no binding (tested: 5 µg/ml)”; in test [10], “no binding (tested: 5 µg/ml)”. Besides, the IC50 came out at 0.82 nM in test [6] and 0.942 nM in test [11].

B6: Antibody h#12a (antibody, V domains shown)
VH: EVQLVESGGGLVQPGGSLRLSCAASGFTFSNFGMHWVRQAPGKGLEWVAYISSGSGTIYYSDTVRGRFTISRDDSKNTLYLQMNSLRAEDTAVYYCARSDYDGDWFFDVWGQGTLVTVSS
VL: DIQMTQSPSSLSASVGDRVTITCKASQDVTTAVAWYQQKPGKAPKLLIYSASFRYTGVPSRFSGSGSGTDFTLTISSLQPEDFATYYCQQHFTTPLTFGQGTKVEIK
notes: Humanized variant of 9B6
For B6, the 50% inhibitory concentration (IC50) in [16] was 0.318 nM. The molecule also came in with a Kd in test [17] of 0.242 nM.
